# In patent US20140212458A1:
# Several values for one entry are separate records, joined by “and”; a condition that tells them apart may be missing. Equal values may be shown once.
# Tests used:
# [1] = target: BG505 SOSIP.664-D7324 gp140 trimer (HIV-1 BG505 (clade A)); assay: D7324-capture ELISA, average of 2-6 titrations
# [2] = target: BG505 SOSIP.664 gp140 trimer (HIV-1 BG505 (clade A)); assay: ITC, two-site model
# [3] = target: BG505 gp120-D7324 monomer (HIV-1 BG505 (clade A)); assay: D7324-capture ELISA (panel A)
# [4] = target: BG505 SOSIP.664-D7324 gp140 trimer (HIV-1 BG505 (clade A)); assay: D7324-capture ELISA (panel A)
# [5] = target: BG505 SOSIP.664 gp140 trimer (HIV-1 BG505 (clade A)); assay: ITC, antibody titrated into trimer
# [6] = target: BG505 SOSIP.664-D7324 gp140 trimer (HIV-1 BG505 (clade A)); assay: D7324-capture ELISA (panel B)
# [7] = target: BG505 SOSIP.664 gp140 trimer (HIV-1 BG505 (clade A)); assay: negative stain EM, 2D class averages; Fab 240 nM, trimer 14 nM
# [8] = target: BG505 SOSIP.664 gp140 trimer (HIV-1 BG505 (clade A)); assay: negative stain EM, 2D class averages; Fab 600 nM, trimer 40 nM
# [9] = target: BG505 SOSIP.664 gp140 trimer (HIV-1 BG505 (clade A)); assay: negative stain EM
# [10] = target: BG505 gp120-D7324 monomer in the presence of sCD4 (HIV-1 BG505 (clade A)); assay: D7324-capture ELISA with sCD4 (panel B)
# [11] = target: BG505 gp41ECTO-His (HIV-1 BG505 (clade A)); assay: Ni-NTA-capture ELISA (panel C)
# [12] = target: BG505 SOSIP.664 gp140 trimer (HIV-1 BG505 (clade A)); assay: negative stain EM, 2D class averages; Fab 860 nM, trimer 48 nM
# [13] = target: BG505 SOSIP.664-D7324 gp140 trimer (HIV-1 BG505 (clade A)); assay: D7324-capture ELISA (panel D)
# [14] = target: recombinant HIV-1 envelope glycoprotein gp120 BG505 clade A (HIV-1 BG505 (clade A)); assay: ELISA on BG505 gp120
# [15] = target: BG505 SOSIP.664 gp140 trimer (HIV-1 BG505 (clade A)); assay: SDS-PAGE of SEC fractions, ImageJ
# [16] = target: BG505 gp120 monomer (HIV-1 BG505 (clade A)); assay: ITC
# [17] = target: BG505 SOSIP.664 gp140 trimer (HIV-1 BG505 (clade A)); assay: ITC
# [18] = target: BG505 SOSIP.664 gp140 trimer (HIV-1 BG505 (clade A)); assay: ITC, Fab titrated into trimer; footnote f: data previously described elsewhere (Julien 2013, the applicants' own PG9:trimer study, also an example of this filing)
# [19] = target: BG505 gp120 monomer (HIV-1 BG505 (clade A)); assay: ITC, Fab titrated into Env, 25 C
# [20] = target: BG505 SOSIP.664 gp140 trimer (HIV-1 BG505 (clade A)); assay: ITC, Fab titrated into Env, 25 C
# [21] = target: BG505 SOSIP.664 gp140 trimer (HIV-1 BG505 (clade A)); assay: ITC; remark: listed apart in the source
# [22] = target: BG505 SOSIP.664 gp140 trimer (HIV-1 BG505 (clade A)); assay: negative stain EM (not shown)
# [23] = target: BG505 SOSIP.664-His gp140 trimer (HIV-1 BG505 (clade A)); assay: SPR, trimer on NTA chip, IgG 1,000 nM
# [24] = target: JR-FL gp120 core with mini V3 (HIV-1 JR-FL); assay: ITC
# [25] = target: BG505 SOSIP.664-His gp140 trimer (HIV-1 BG505 (clade A)); assay: Ni-NTA-capture ELISA (panel C)
# [26] = target: BG505 SOSIP.664 gp140 trimer (HIV-1 BG505 (clade A)); assay: negative stain EM, 2D class averages; Fab 480 nM, trimer 44 nM
substance,measurement,setting,value
1NC9 (antibody),EC50,[1],0.735 µg/mL
2G12 (antibody),"Kd2 (second, low affinity binding event)",[2],12.3 µM
same,EC50 (read off the curve),[3],0.01 µg/mL
same,EC50 (read off the curve),[4],0.02 µg/mL
same,-TΔS,[5],28.4 kcal/mol
same,Kd,[5],16 nM and 2.4 µg/mL
same,N (stoichiometry of binding),[5],2.4
same,ΔG,[5],-10.6 kcal/mol
same,ΔH,[5],-39 kcal/mol
same,EC50,[1],0.027 µg/mL
3BC176 (antibody),EC50,[1],5.65 µg/mL
3BC315 (antibody),EC50,[1],0.962 µg/mL
3BNC60 (antibody),EC50 (read off the curve),[6],0.03 µg/mL
same,EC50,[1],0.095 µg/mL
3BNC117 (antibody),EC50 (read off the curve),[6],0.1 µg/mL
same,EC50,[1],0.102 µg/mL
7B2 (antibody),EC50,[1],> 10 µg/mL
8ANC195 (antibody),EC50,[1],2.06 µg/mL
12A12 (antibody),EC50,[1],0.08 µg/mL
14e Fab,% 1 Fab bound,[7],17%
same,% 2 Fabs bound,[7],2%
same,% 3 Fabs bound,[7],0%
same,% trimer alone,[7],81%
same,"particles, 1 Fab bound",[7],4440 particles
same,"particles, 2 Fabs bound",[7],610 particles
same,"particles, 3 Fabs bound",[7],0 particles
same,"particles, trimer alone",[7],21900 particles
19b Fab,% 1 Fab bound,[8],30%
same,% 2 Fabs bound,[8],8%
same,% 3 Fabs bound,[8],1%
same,% trimer alone,[8],61%
same,"particles, 1 Fab bound",[8],12500 particles
same,"particles, 2 Fabs bound",[8],3050 particles
same,"particles, 3 Fabs bound",[8],211 particles
same,"particles, trimer alone",[8],25100 particles
same,"% of trimers occupied by one, two or three Fabs",[9],39%
45-46 (antibody),EC50,[1],0.127 µg/mL
A32 (antibody),EC50 (read off the curve),[10],0.04 µg/mL
same,EC50,[1],> 10 µg/mL
CD4-IgG2 (Fc fusion),EC50,[1],0.155 µg/mL
CH01 (antibody),EC50,[1],2.78 µg/mL
CH31 (antibody),EC50,[1],0.347 µg/mL
CH103 (antibody),EC50,[1],0.792 µg/mL
CH106 (antibody),EC50,[1],2.57 µg/mL
F91 (antibody),EC50,[1],> 10 µg/mL
F105 (antibody),EC50,[1],> 10 µg/mL
F240 (antibody),EC50,[1],> 10 µg/mL
same,EC50 (read off the curve),[11],0.01 µg/mL
F240 Fab,% 1 Fab bound,[12],2%
same,% 2 Fabs bound,[12],0%
same,% 3 Fabs bound,[12],0%
same,% trimer alone,[12],98%
same,"particles, 1 Fab bound",[12],154 particles
same,"particles, 2 Fabs bound",[12],0 particles
same,"particles, 3 Fabs bound",[12],0 particles
same,"particles, trimer alone",[12],6260 particles
HJ16 (antibody),EC50,[1],4.38 µg/mL
PG9 (antibody),EC50 (read off the curve),[13],0.4 µg/mL
same,EC50 (read off the curve),[14],0.04 µg/mL
same,EC50,[1],0.343 µg/mL
PG9 Fab,gp140 protomers per PG9 Fab,[15],3
same,Kd,[16],20 to 30 nM
same,Kd,[17],20 to 30 nM
same,-TΔS,[18],7.8 kcal/mol
same,Kd,[18],11 nM and 0.55 µg/mL
same,N (stoichiometry of binding),[18],0.8
same,ΔG,[18],-10.9 kcal/mol
same,ΔH,[18],-18.7 kcal/mol
same,-TΔS,[19],17.2 kcal/mol
same,Kd,[19],31 nM
same,N (stoichiometry of binding),[19],0.4
same,ΔG,[19],-10.2 kcal/mol
same,ΔH,[19],-27.4 kcal/mol
same,ΔG,[20],-10.1 kcal/mol
same,ΔH,[20],-20.6 kcal/mol
same,Kd,[21],30 nM
PG16 (antibody),EC50 (read off the curve),[13],0.1 µg/mL
same,EC50 (read off the curve),[14],0.2 µg/mL
same,EC50,[1],0.199 µg/mL
PGT121 (antibody),EC50 (read off the curve),[6],0.09 µg/mL
same,EC50,[1],0.095 µg/mL
PGT121 Fab,-TΔS,[5],20.6 kcal/mol
same,Kd,[5],151 nM and 7.55 µg/mL
same,N (stoichiometry of binding),[5],2.4
same,ΔG,[5],-9.3 kcal/mol
same,ΔH,[5],-29.9 kcal/mol
PGT122 (antibody),EC50,[1],0.159 µg/mL
PGT122 Fab,% of images with no Fabs bound,[22],< 3%
same,% of images with three Fabs bound,[22],> 50%
PGT123 (antibody),EC50,[1],0.127 µg/mL
PGT125 (antibody),EC50 (read off the curve),[6],0.04 µg/mL
same,EC50,[1],0.047 µg/mL
PGT126 (antibody),EC50 (read off the curve),[6],0.03 µg/mL
same,EC50,[1],0.026 µg/mL
PGT127 (antibody),EC50,[1],0.066 µg/mL
PGT127 Fab,N (stoichiometry of binding),[17],< 3
same,Kd,[21],70 nM
PGT128 (antibody),EC50 (read off the curve),[6],0.04 µg/mL
same,EC50 (read off the curve),[3],0.04 µg/mL
same,EC50 (read off the curve),[4],0.04 µg/mL
same,plateau response (RU),[23],750 RU
same,EC50,[1],0.058 µg/mL
PGT128 Fab,"Kd2 (second, low affinity binding event)",[2],20 µM
same,-TΔS,[5],11.6 kcal/mol
same,Kd,[5],5.7 nM and 0.285 µg/mL
same,N (stoichiometry of binding),[5],2.3
same,ΔG,[5],-11.2 kcal/mol
same,ΔH,[5],-22.8 kcal/mol
PGT130 (antibody),EC50,[1],0.524 µg/mL
PGT135 (antibody),EC50,[1],0.521 µg/mL
PGT135 Fab,Kd,[24],82 nM
same,% of images with no Fabs bound,[22],< 3%
same,% of images with three Fabs bound,[22],> 50%
PGT136 (antibody),EC50,[1],0.434 µg/mL
PGT145 (antibody),EC50 (read off the curve),[13],0.06 µg/mL
same,EC50,[1],0.114 µg/mL
PGV04 (antibody),EC50,[1],0.227 µg/mL
PGV04 Fab,% of images with no Fabs bound,[22],< 3%
same,% of images with three Fabs bound,[22],> 50%
VRC01 (antibody),EC50,[1],0.163 µg/mL
same,EC50 (read off the curve),[25],0.03 µg/mL
VRC03 (antibody),EC50 (read off the curve),[6],0.6 µg/mL
same,EC50,[1],0.647 µg/mL
VRC06 (antibody),EC50,[1],1.1 µg/mL
VRC06b (antibody),EC50 (read off the curve),[6],0.4 µg/mL
same,EC50,[1],0.345 µg/mL
X5 (antibody),EC50,[1],> 10 µg/mL
b6 (antibody),EC50 (read off the curve),[3],0.09 µg/mL
same,plateau response (RU),[23],30 RU
same,EC50,[1],0.871 µg/mL
b6 Fab,% 1 Fab bound,[26],6%
same,% 2 Fabs bound,[26],0%
same,% 3 Fabs bound,[26],0%
same,% trimer alone,[26],94%
same,"particles, 1 Fab bound",[26],354 particles
same,"particles, 2 Fabs bound",[26],0 particles
same,"particles, 3 Fabs bound",[26],0 particles
same,"particles, trimer alone",[26],5610 particles
b12 (antibody),EC50 (read off the curve),[14],0.03 µg/mL
same,EC50,[1],> 10 µg/mL
